Laboratory results from article PMC9482650, “Quantitative fragmentomics allow affinity mapping of interactomes” (Nature Communications, 2022).

Tests used:
Assay in all cases: holdup assay
Set-up in all cases: key: below the threshold = too weak to quantify, mostly under pKd 3.1 to 4
[1] = molecular target: LNX1_3, Q8TBB1
[2] = molecular target: NHERF4_1, Q86UT5-2
[3] = molecular target: T1, APBA2_1, Q99767
T1 sequence (Q99767 563-664, limits assumed, looked up): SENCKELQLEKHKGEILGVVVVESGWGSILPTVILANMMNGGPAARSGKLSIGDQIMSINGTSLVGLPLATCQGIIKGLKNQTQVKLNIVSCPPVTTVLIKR

[4] = molecular target: DLG2_3, Q15700
[5] = molecular target: T2, HTRA3, P83110
T2 sequence (P83110 354-453, limits assumed, looked up): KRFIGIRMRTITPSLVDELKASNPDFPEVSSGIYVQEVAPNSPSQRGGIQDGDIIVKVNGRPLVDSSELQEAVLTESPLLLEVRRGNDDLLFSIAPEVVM

[6] = molecular target: SCRIB_3, Q14160
Chain of SCRIB_3, Q14160 (Q14160 999-1103): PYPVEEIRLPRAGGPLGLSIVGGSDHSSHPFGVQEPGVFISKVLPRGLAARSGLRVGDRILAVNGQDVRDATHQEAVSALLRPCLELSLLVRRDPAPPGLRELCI

[7] = molecular target: T3, MPP7, Q5T2T1
T3 sequence (Q5T2T1 134-230, limits assumed, looked up): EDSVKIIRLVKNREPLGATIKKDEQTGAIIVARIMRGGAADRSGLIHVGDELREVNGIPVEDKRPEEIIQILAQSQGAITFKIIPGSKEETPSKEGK

[8] = molecular target: T4, PCLO, Q9Y6V0
T4 sequence (Q9Y6V0 4491-4600, limits assumed, looked up): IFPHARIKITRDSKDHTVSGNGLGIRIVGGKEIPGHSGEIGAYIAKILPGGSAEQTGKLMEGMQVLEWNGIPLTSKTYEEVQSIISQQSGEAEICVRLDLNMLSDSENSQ

[9] = molecular target: T5, SNTB1, Q13884
T5 sequence (Q13884 107-205, limits assumed, looked up): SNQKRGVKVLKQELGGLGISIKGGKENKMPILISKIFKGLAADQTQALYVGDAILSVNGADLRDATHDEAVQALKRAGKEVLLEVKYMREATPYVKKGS

[10] = molecular target: Inadl_10, Q8NI35
Chain of Inadl_10, Q8NI35 (Q8NI35 1673-1763): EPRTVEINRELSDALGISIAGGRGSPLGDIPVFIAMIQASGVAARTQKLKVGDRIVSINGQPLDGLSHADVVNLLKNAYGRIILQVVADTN

[11] = molecular target: GORASP1, Q9BQQ3
Chain of GORASP1, Q9BQQ3 (Q9BQQ3 1-208): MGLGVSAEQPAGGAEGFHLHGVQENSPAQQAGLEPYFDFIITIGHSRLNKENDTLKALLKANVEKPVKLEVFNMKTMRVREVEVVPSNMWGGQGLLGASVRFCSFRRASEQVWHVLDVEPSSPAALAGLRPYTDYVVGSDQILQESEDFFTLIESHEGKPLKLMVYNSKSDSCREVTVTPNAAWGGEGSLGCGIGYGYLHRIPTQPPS

[12] = molecular target: T6, PDZD2_2, O15018
T6 sequence (O15018 329-429, limits assumed, looked up): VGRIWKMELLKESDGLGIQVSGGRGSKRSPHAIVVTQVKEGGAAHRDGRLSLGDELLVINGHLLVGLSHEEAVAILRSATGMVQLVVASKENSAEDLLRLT

[13] = molecular target: PICK1, Q9NRD5
Chain of PICK1, Q9NRD5 (Q9NRD5 17-115): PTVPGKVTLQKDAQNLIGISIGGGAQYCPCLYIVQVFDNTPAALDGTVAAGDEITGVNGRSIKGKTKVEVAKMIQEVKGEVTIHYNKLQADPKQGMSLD

[14] = molecular target: T7, DLG3_2, Q92796
T7 sequence (Q92796 221-321, limits assumed, looked up): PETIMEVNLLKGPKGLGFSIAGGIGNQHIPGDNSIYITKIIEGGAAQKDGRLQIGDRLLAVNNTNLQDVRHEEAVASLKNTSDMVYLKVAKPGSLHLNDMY

[15] = molecular target: T8, GRIP1_3, Q9Y3R0
T8 sequence (Q9Y3R0 247-346, limits assumed, looked up): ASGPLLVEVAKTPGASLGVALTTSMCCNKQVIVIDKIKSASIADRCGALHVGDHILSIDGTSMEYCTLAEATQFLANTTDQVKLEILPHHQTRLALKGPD

[16] = molecular target: T9, GRIP1_4, Q9Y3R0
T9 sequence (Q9Y3R0 467-571, limits assumed, looked up): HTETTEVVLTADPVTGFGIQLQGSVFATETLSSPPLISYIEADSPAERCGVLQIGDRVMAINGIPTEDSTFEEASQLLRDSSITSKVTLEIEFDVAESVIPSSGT

[17] = molecular target: Inadl_1, Q8NI35
Chain of Inadl_1, Q8NI35 (Q8NI35 113-229): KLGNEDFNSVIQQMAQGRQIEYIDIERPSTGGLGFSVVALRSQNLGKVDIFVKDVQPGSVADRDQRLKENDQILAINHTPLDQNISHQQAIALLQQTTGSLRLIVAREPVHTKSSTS

[18] = molecular target: T10, LIN7B, Q9HAP6
T10 sequence (Q9HAP6 88-185, limits assumed, looked up): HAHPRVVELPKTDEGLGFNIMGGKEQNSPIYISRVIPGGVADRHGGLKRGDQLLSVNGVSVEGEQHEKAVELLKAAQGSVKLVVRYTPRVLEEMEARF

[19] = molecular target: T11, DFNB31_1, Q9P202
T11 sequence (Q9P202 135-233, limits assumed, looked up): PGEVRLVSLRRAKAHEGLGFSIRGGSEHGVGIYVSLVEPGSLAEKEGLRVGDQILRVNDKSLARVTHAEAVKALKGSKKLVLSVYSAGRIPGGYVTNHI

[20] = molecular target: DLG1_1, Q12959
[21] = molecular target: DLG1_2, Q12959
[22] = molecular target: T12, GRIP1_7, Q9Y3R0
T12 sequence (Q9Y3R0 999-1096, limits assumed, looked up): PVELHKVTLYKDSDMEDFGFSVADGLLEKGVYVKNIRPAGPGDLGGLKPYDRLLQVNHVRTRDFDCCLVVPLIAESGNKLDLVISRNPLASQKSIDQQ

[23] = molecular target: PDZRN4_1, Q6ZMN7
Chain of PDZRN4_1, Q6ZMN7 (Q6ZMN7 213-318): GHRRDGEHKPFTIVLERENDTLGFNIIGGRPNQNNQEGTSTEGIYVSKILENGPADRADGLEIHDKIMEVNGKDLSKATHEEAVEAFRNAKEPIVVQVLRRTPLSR

[24] = molecular target: Inadl_9, Q8NI35
Chain of Inadl_9, Q8NI35 (Q8NI35 1530-1615): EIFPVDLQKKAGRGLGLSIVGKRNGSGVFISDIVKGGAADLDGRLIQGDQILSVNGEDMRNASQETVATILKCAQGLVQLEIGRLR

[25] = molecular target: AHNAK1, Q09666
[26] = molecular target: Inadl_5, Q8NI35
Chain of Inadl_5, Q8NI35 (Q8NI35 673-780): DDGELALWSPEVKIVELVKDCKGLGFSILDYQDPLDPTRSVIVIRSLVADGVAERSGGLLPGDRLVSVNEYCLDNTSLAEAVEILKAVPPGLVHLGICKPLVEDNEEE

[27] = plain residues with an end cap or a label only (N-terminal biotin on a linker: gsgsgs; C-terminal amide)
[28] = plain residues with an end cap or a label only (N-terminal biotin on a linker: ahx)
[29] = plain residues with an end cap or a label only (N-terminal biotin on a linker: none)

Chain of NHERF4_1, Q86UT5-2 (Q86UT5 other isoform, or with tags, fused parts or gaps): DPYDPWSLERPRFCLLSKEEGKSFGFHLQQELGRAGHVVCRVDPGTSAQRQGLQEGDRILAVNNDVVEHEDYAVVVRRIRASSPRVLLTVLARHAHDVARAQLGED
Chain of LNX1_3, Q8TBB1 (Q8TBB1 500-596): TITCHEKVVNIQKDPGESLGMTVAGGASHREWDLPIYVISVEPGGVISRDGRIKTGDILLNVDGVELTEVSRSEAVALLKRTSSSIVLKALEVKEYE

In the case of VSVDDVRSTSQGLSSY [DFNB31_int, Q9P202], the pKd [1, 27] is reported as “below the threshold”, the pKd [2, 27] is reported as “below the threshold” and the pKd [3, 27] is reported as “below the threshold”. For the same binder, the pKd [4, 27] was 3.55, the pKd [5, 27] was “below the threshold” and the pKd [6, 27] was “below the threshold”. The pKd [7, 27] was “below the threshold”, the pKd [8, 27] was “below the threshold” and the pKd [9, 27] was “below the threshold”. For the same binder, the pKd [10, 27] was “below the threshold”, the pKd [11, 27] was “below the threshold” and the pKd [12, 27] was “below the threshold”. The pKd [13, 27] was “below the threshold”, the pKd [14, 27] was 4.12 and the pKd [15, 27] was “below the threshold”. For the same binder, the pKd [16, 27] was “below the threshold”, the pKd [17, 27] was “below the threshold” and the pKd [18, 27] was 3.48. For the same binder, the pKd [19, 27] was “below the threshold”, the pKd [20, 27] was “below the threshold” and the pKd [21, 27] was “below the threshold”. For the same binder, the pKd [22, 27] was “below the threshold”, the pKd [23, 27] was “below the threshold” and the pKd [24, 27] was “below the threshold”. The pKd [25, 27] was “below the threshold” and the pKd [26, 27] was “below the threshold”.

With PSASCAVTAA [PDLIM4, P50479;P50479-2] the pKd [1, 28] was “below the threshold”, the pKd [2, 28] was “below the threshold” and the pKd [3, 28] was “below the threshold”. For the same binder, the pKd [4, 28] was “below the threshold”, the pKd [5, 28] was “below the threshold” and the pKd [6, 28] was “below the threshold”. For the same binder, the pKd [7, 28] was “below the threshold”, the pKd [8, 28] was “below the threshold” and the pKd [9, 28] was “below the threshold”. The pKd [10, 28] was “below the threshold”, the pKd [11, 28] was “below the threshold” and the pKd [12, 28] was “below the threshold”. For the same binder, the pKd [13, 28] was “below the threshold”, the pKd [14, 28] was “below the threshold” and the pKd [15, 28] was “below the threshold”. The pKd [16, 28] was “below the threshold”, the pKd [17, 28] was “below the threshold” and the pKd [18, 28] was “below the threshold”. The pKd [19, 28] was “below the threshold”, the pKd [20, 28] was “below the threshold” and the pKd [21, 28] was “below the threshold”. The pKd [22, 28] was “below the threshold”, the pKd [23, 28] was “below the threshold” and the pKd [24, 28] was “below the threshold”. The pKd [25, 28] was “below the threshold” and the pKd [26, 28] was “below the threshold”.

For NLNSSRVPDLLV [SARS-CoV2-E, P0DTC4], the pKd [1, 29] was “below the threshold”, the pKd [2, 29] was “below the threshold” and the pKd [3, 29] was “below the threshold”. The pKd [4, 29] was “below the threshold”, the pKd [5, 29] was 3.63 and the pKd [6, 29] was “below the threshold”. The pKd [7, 29] was “below the threshold”, the pKd [8, 29] was “below the threshold” and the pKd [9, 29] was “below the threshold”. The pKd [10, 29] was “below the threshold”, the pKd [11, 29] was 3.6 and the pKd [12, 29] was “below the threshold”. For the same binder, the pKd [13, 29] was 3.67, the pKd [14, 29] was “below the threshold” and the pKd [15, 29] was “below the threshold”. For the same binder, the pKd [16, 29] was “below the threshold”, the pKd [17, 29] was “below the threshold” and the pKd [18, 29] was “below the threshold”. For the same binder, the pKd [19, 29] was “below the threshold”, the pKd [20, 29] was “below the threshold” and the pKd [21, 29] was “below the threshold”. For the same binder, the pKd [22, 29] was “below the threshold”, the pKd [23, 29] was “below the threshold” and the pKd [24, 29] was “below the threshold”. The pKd [25, 29] was “below the threshold” and the pKd [26, 29] was “below the threshold”.

For TVICWPGSLV [LNX2, Q8N448], the pKd [1, 28] was 3.57, the pKd [2, 28] was 3.55 and the pKd [3, 28] was “below the threshold”. For the same binder, the pKd [4, 28] was 4.24, the pKd [5, 28] was 3.85 and the pKd [6, 28] was 4.11. For the same binder, the pKd [7, 28] was “below the threshold”, the pKd [8, 28] was “below the threshold” and the pKd [9, 28] was 4.1. The pKd [10, 28] was 4.03, the pKd [11, 28] was 3.58 and the pKd [12, 28] was 5.07. For the same binder, the pKd [13, 28] was 3.75, the pKd [14, 28] was 4.07 and the pKd [15, 28] was “below the threshold”. For the same binder, the pKd [16, 28] was “below the threshold”, the pKd [17, 28] was “below the threshold” and the pKd [18, 28] was 4.46. The pKd [19, 28] was “below the threshold”, the pKd [20, 28] was 4.21 and the pKd [21, 28] was 4.27. The pKd [22, 28] was “below the threshold”, the pKd [23, 28] was 4.23 and the pKd [24, 28] was 3.99. The pKd [25, 28] was “below the threshold” and the pKd [26, 28] was 3.51.
